Assay results: patent publication US11034762 (CENTIVAX, dated 2021)

B1: COVID19_P09_D06 (scFv, V domains shown)
VH: QVQLVQSGAEVKKPGSSVKVSCKASGYGFITYWIGWVRQAPGQGLEWMGIIYPGDSETRYAQKFQGRVTITADESTSTAYMELSSLRSEDTAVYYCAGGSGIYVPMDVWGQGTLVTVSS
VL: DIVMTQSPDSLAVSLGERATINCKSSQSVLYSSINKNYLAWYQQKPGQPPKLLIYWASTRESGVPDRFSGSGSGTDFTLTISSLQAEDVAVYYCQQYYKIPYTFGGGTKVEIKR
B2: COVID19_P22_B04 (scFv, V domains shown)
VH: QVQLVQSGAEVKKPGSSVKVSCKASGYGFITYWIGWVRQAPGQGLEWMGIIYPGDSETRYAQKFQGRVTITADESTSTAYMELSSLRSEDTAVYYCAGGEGISTPMDVWGQGTLVTVSS
VL: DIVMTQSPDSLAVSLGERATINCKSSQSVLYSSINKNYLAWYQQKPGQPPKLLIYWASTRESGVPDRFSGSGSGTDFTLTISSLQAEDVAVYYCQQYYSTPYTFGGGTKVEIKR
B3: COVID19_P22_G12 (scFv, V domains shown)
VH: QVQLVQSGAEVKKPGSSVKVSCKASGGGFITYWIGWVRQAPGQGLEWMGIIYPGDSETRYSQKFQGRVTITADESTSTAYMELSSLRSEDTAVYYCAGGSGISTPMDVWGQGTLVTVSS
VL: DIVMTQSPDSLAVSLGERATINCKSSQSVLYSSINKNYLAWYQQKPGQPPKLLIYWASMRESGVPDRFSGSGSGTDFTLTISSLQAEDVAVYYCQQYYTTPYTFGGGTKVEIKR
B4: COVID19_P09_A09 (scFv, V domains shown)
VH: QVQLVQSGAEVKKPGSSVKVSCKASGGTFSSYAISWVRQAPGQGLEWMGIIYPGDSTTRYSQKFQGRVTITADESTSTAYMELSSLRSEDTAVYYCYSGSGISTPMDVWGQGTLVTVSS
VL: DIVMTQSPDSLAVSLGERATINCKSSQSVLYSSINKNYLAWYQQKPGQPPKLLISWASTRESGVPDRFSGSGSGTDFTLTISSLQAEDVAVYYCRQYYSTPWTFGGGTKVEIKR
B5: COVID19_P10_B06 (scFv, V domains shown)
VH: QVQLVQSGAEVKKPGSSVKVSCKASGGTFSSYAISWVRQAPGQGLEWMGIIYPGDSTTRYSQKFQGRVTITADESTSTAYMELSSLRSEDTAVYYCYSGSGISTPMDVWGQGTLVTVSS
VL: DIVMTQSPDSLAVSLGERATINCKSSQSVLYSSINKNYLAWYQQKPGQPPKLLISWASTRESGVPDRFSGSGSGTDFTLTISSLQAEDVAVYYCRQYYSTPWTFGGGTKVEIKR
B6: COVID19_P21_F04 (scFv, V domains shown)
VH: QVQLVQSGAEVKKPGSSVKVSCKASGGTFSSYAISWVRQAPGQGLEWMGQINPSGDSTRYAQKFQGRVTITADESTSTAYMELSSLRSEDTAVYYCAGGSGISTPMDVWGQGTLVTVSS
VL: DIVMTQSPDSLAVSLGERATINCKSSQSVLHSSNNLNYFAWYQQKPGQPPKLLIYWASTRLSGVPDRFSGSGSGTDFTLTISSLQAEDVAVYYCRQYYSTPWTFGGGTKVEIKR
B7: COVID19_P21_A12 (scFv, V domains shown)
VH: QVQLVQSGAEVKKPGSSVKVSCKASGGTFSSYAISWVRQAPGQGLEWMGSVIPVFGRPNYAQKFQGRVTITADESTSTAYMELSSLRSEDTAVYYCAGEWGISTPMDVWGQGTLVTVSS
VL: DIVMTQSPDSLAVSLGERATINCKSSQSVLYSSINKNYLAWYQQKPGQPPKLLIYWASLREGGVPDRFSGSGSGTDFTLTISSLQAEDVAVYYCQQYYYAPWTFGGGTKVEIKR
B8: COVID19_P21_B08 (scFv, V domains shown)
VH: QVQLVQSGAEVKKPGSSVKVSCKASGGTFSSYAISWVRQAPGQGLEWMGVINTGGGSVTYAQKFQGRVTITADESTSTAYMELSSLRSEDTAVYYCAGHWGISTPMDVWGQGTLVTVSS
VL: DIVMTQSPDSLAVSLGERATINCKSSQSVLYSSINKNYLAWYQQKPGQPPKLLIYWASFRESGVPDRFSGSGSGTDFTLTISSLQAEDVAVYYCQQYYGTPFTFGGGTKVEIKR
B9: COVID19_P21_F08 (scFv, V domains shown)
VH: QVQLVQSGAEVKKPGSSVKVSCKASGGTFSTYAFNWVRQAPGQGLEWMGVINTGGGSVTYAQKFQGRVTITADESTSTAYMELSSLRSEDTAVYYCAGGSGISTPGAVWGQGTLVTVSS
VL: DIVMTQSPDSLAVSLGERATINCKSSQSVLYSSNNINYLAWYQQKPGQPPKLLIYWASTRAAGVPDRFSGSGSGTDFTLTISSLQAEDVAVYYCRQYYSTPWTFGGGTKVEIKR
B10: COVID19_P22_B12 (scFv, V domains shown)
VH: QVQLVQSGAEVKKPGSSVKVSCKASGGTLSSYAISWVRQAPGQGLEWMGIIYPGDSETRYSQKFQGRVTITADESTSTAYMELSSLRSEDTAVYYCAGGSGISTPRSVWGQGTLVTVSS
VL: DIVMTQSPDSLAVSLGERATINCKSSRILSYSPDNKNYLAWYQQKPGQPPKLLIYWASTRESGVPDRFSGSGSGTDFTLTISSLQAEDVAVYYCQQSYITPYTFGGGTKVEIKR
B11: COVID19_P21_H01 (scFv, V domains shown)
VH: QVQLVQSGAEVKKPGSSVKVSCKASGYGFSTYWIGWVRQAPGQGLEWMGWINPNSGGTNYAQKFQGRVTITADESTSTAYMELSSLRSEDTAVYYCAGGSGISTPMDVWGQGTLVTVSS
VL: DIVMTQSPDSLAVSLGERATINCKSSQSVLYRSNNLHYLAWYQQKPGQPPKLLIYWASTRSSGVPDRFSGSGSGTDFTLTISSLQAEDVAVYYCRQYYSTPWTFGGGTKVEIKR
B12: COVID19_P22_C09 (scFv, V domains shown)
VH: QVQLVQSGAEVKKPGSSVKVSCKASGYNFTDYHIQWVRQAPGQGLEWVGMIIPRHGGTAYAQRFQGRVTITADESTSTAYMELSSLRSEDTAVYYCAGGSGLTTPMDVWGQGTLVTVSS
VL: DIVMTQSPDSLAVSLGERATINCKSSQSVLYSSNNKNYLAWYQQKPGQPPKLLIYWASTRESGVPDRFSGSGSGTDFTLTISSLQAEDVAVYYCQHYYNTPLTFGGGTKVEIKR

Assays:
[1] = target: T1, SARS-CoV-1 Receptor Binding Domain (RBD) protein (SARS-CoV-1, UniProt P59594 306-527); assay: SPR; clone listed as COV2 only at the 21st table, row 45, column 3
T1 construct: also called SARS1

[2] = target: T2, MERS Receptor Binding Domain (RBD) protein (MERS virus, UniProt K9N5Q8 367-606); assay: as above
T2 construct: also called Middle East Respiratory Syndrome (MERS) virus
T2 sequence: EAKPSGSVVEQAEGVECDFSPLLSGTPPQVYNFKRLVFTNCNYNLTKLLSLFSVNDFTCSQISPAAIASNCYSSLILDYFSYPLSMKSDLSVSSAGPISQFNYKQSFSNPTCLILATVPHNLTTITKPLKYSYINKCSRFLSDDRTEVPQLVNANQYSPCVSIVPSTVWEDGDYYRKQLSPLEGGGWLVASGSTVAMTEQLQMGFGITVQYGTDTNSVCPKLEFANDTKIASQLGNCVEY

[3] = target: SARS-CoV-2 Receptor Binding Domain (RBD) protein (SARS-CoV-2, UniProt P0DTC2 319-541)
[4] = target: T1, SARS-CoV-1 Receptor Binding Domain …; assay: SPR; clone listed as COV2 only at the 21st table, row 43, column 3
[5] = target: T2, MERS Receptor Binding Domain (RBD) …; assay: as above
[6] = target: T1, SARS-CoV-1 Receptor Binding Domain …; assay: SPR; clone listed as COV2 only at the 21st table, row 8, column 3
[7] = target: T2, MERS Receptor Binding Domain (RBD) …; assay: as above
[8] = target: T1, SARS-CoV-1 Receptor Binding Domain …; assay: SPR; clone listed as COV2 only at the 21st table, row 36, column 3
[9] = target: T2, MERS Receptor Binding Domain (RBD) …; assay: as above
[10] = target: T1, SARS-CoV-1 Receptor Binding Domain …; assay: SPR; clone listed as COV2 only at the 21st table, row 30, column 3
[11] = target: T2, MERS Receptor Binding Domain (RBD) …; assay: as above
[12] = target: T1, SARS-CoV-1 Receptor Binding Domain …; assay: SPR; clone listed as COV2 only at the 21st table, row 32, column 3
[13] = target: T2, MERS Receptor Binding Domain (RBD) …; assay: as above
[14] = target: T1, SARS-CoV-1 Receptor Binding Domain …; assay: SPR; clone listed as COV2 only at the 21st table, row 33, column 3
[15] = target: T2, MERS Receptor Binding Domain (RBD) …; assay: as above
[16] = target: T1, SARS-CoV-1 Receptor Binding Domain …; assay: SPR; clone listed as COV2 only at the 21st table, row 34, column 3
[17] = target: T2, MERS Receptor Binding Domain (RBD) …; assay: as above
[18] = target: T1, SARS-CoV-1 Receptor Binding Domain …; assay: SPR; clone listed as COV2 only at the 21st table, row 35, column 3
[19] = target: T2, MERS Receptor Binding Domain (RBD) …; assay: as above
[20] = target: T1, SARS-CoV-1 Receptor Binding Domain …; assay: SPR; clone listed as COV2 only at the 21st table, row 37, column 3
[21] = target: T2, MERS Receptor Binding Domain (RBD) …; assay: as above
[22] = target: T1, SARS-CoV-1 Receptor Binding Domain …; assay: SPR; clone listed as COV2 only at the 21st table, row 51, column 3
[23] = target: T2, MERS Receptor Binding Domain (RBD) …; assay: as above
[24] = target: T1, SARS-CoV-1 Receptor Binding Domain …; assay: SPR; clone listed as COV2 only at the 21st table, row 52, column 3
[25] = target: T2, MERS Receptor Binding Domain (RBD) …; assay: as above

Binder | Kd [3] | koff [3] | kon [3] | other results
B1 | 16.4 nM | 0.00538 s⁻¹ | 328000 M⁻¹ s⁻¹ | binding result [1]: no binding (tested: up to 300 nM); binding result [2]: no binding (tested: up to 300 nM)
B2 | 26.1 nM | 0.015 s⁻¹ | 570000 M⁻¹ s⁻¹ | binding result [4]: no binding (tested: up to 300 nM); binding result [5]: no binding (tested: up to 300 nM)
B3 | 38.3 nM | 0.016 s⁻¹ | 410000 M⁻¹ s⁻¹ | binding result [6]: no binding (tested: up to 300 nM); binding result [7]: no binding (tested: up to 300 nM)
B4 | 0.5 nM | 5.7e-05 s⁻¹ | 109000 M⁻¹ s⁻¹ | binding result [8]: no binding (tested: up to 300 nM); binding result [9]: no binding (tested: up to 300 nM)
B5 | 0.29 nM | 5.7e-05 s⁻¹ | 200000 M⁻¹ s⁻¹ | binding result [10]: no binding (tested: up to 300 nM); binding result [11]: no binding (tested: up to 300 nM)
B6 | 8.81 nM | 0.00037 s⁻¹ | 41900 M⁻¹ s⁻¹ | binding result [12]: no binding (tested: up to 300 nM); binding result [13]: no binding (tested: up to 300 nM)
B7 | 6.01 nM | 0.000911 s⁻¹ | 152000 M⁻¹ s⁻¹ | binding result [14]: no binding (tested: up to 300 nM); binding result [15]: no binding (tested: up to 300 nM)
B8 | 2.95 nM | 0.000344 s⁻¹ | 117000 M⁻¹ s⁻¹ | binding result [16]: no binding (tested: up to 300 nM); binding result [17]: no binding (tested: up to 300 nM)
B9 | 16.3 nM | 0.000893 s⁻¹ | 54900 M⁻¹ s⁻¹ | binding result [18]: no binding (tested: up to 300 nM); binding result [19]: no binding (tested: up to 300 nM)
B10 | 4.24 nM | 0.00036 s⁻¹ | 85000 M⁻¹ s⁻¹ | binding result [20]: no binding (tested: up to 300 nM); binding result [21]: no binding (tested: up to 300 nM)
B11 | 1.38 nM | 0.00022 s⁻¹ | 160000 M⁻¹ s⁻¹ | binding result [22]: no binding (tested: up to 300 nM); binding result [23]: no binding (tested: up to 300 nM)
B12 | 32.8 nM | 0.0083 s⁻¹ | 250000 M⁻¹ s⁻¹ | binding result [24]: no binding (tested: up to 300 nM); binding result [25]: no binding (tested: up to 300 nM)
